Biological target: L30 (ribosomal protein L30) wild-type (rat) (UniProt P62890)
Assay: EMSA
Details: 30 mM Tris-HCl pH 8.0, 75 mM KCl, 5 mM MgCl2, 1 mM DTT, 0.04 ug/uL BSA, 10% glycerol, 50 ng/uL yeast tRNA, 30 C 15 min; EMSA gels 0.5X TBE at 4 C; RNase …

PHGPx SECIS 102 nt (REMSA)
Kd: 490 nM

Source: publication PMC3706390
